These results are taken from patent US20100104557A1 (Xencor, published 2010).

For test [1], the target named is T1, His-tagged HM1.24 antigen, residues N49-A163 of the extracellular domain (human, UniProt Q10589 49-163).
T1 construct: Expressed in 293T cells, purified by Ni-NTA; not shown: N-terminal His-tag and Factor Xa cleavage site
T1 sequence: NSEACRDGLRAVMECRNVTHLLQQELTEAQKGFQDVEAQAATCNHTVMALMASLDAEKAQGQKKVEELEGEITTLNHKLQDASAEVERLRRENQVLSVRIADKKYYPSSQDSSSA
Briefly: Biacore (SPR): His-tagged HM1.24 antigen coupled directly to the chip (NHS chemistry), antibody as analyte; simultaneous (global Langmuir) fitting. From the text: (§1) FIG. 17. Binding of anti-HM1.24 antibodies to HM1.24 antigen monitored by Biacore. In this format, HM1.24 antigen was coupled directly to the chip, and antibodies at multiple concentrations were used as analyte in this format.
For orientation: In SPR one partner is held on a chip, and binding of the other changes the refractive index at the surface.

The target of test [2] is T1, His-tagged HM1.24 antigen, residues …. Briefly: Biacore (SPR): His-tagged HM1.24 antigen coupled directly to the chip (NHS chemistry), antibody as analyte; separate kd and ka fitting.
Text: as §1

B1: HM1.24_H1L4 (antibody, V domains shown)
VH: QVQLVQSGAEVKKPGASVKVSCKASGYTFTPYWMQWVRQAPGQGLEWMGSIFPGDGDTRYSQSFQGQVTISADKSISTAYMELSRLRSDDTAVYYCARGLRRGGYYFDYWGQGTLVTVSS
VL: DIVMTQSPLSLPVTLGQPASISCKASQDVNTAVAWYLQKPGKSPKLLIYSASNRYTGVPDRITGSGSGTDFTLKISRVEAEDVGVYYCQQHYSTPFTFGSGTKLEIKR
notes: also called H1 and L4 combination; parent H1 antibody
For orientation: koff means a measure of how fast the partners let go of each other. For orientation: kon means a measure of how fast the partners come together. Low readings indicate slower complex formation, high ones faster complex formation. As for B1, in test [1], the koff was found to be 3.18e-05 s⁻¹ and the kon amounted to 834000 M⁻¹ s⁻¹. In test [2], this molecule gave a koff of 5.53e-05 s⁻¹ and a kon of 966000 M⁻¹ s⁻¹.

B2: HM1.24_H1L2 (antibody, human IgG1, kappa, V domains shown)
VH: QVQLVQSGAEVKKPGASVKVSCKASGYTFTPYWMQWVRQAPGQGLEWMGSIFPGDGDTRYSQSFQGQVTISADKSISTAYMELSRLRSDDTAVYYCARGLRRGGYYFDYWGQGTLVTVSS
VL: DIVMTQSPSSLSASVGDRVTITCQASQDVNTAVAWYQQKPDQSPKLLIYSASNRYTGVPDRITGSGSGTDFTLTISSLQAEDVAVYYCQQHYSTPFTFGSGTKLEIKR
notes: also called H1 and L2 combination
For the molecule B2, in test [1], the koff is 2.03e-05 s⁻¹ and the association rate constant (kon) was 754000 M⁻¹ s⁻¹. Also, in test [2], the koff worked out at 4.49e-05 s⁻¹ and the kon stood at 782000 M⁻¹ s⁻¹.

B3: Antibody comprising the HM1.24_H1.2 heavy chain variant and the HM1.24_L4 light chain (antibody, human IgG1, kappa, V domains shown)
VH: QVQLVQSGAEVKKPGASVKVSCKASGYTFTPYWMQWVRQAPGQGLEWMGSIFPGSGDTRYSQSFQGQVTISADKSISTAYMELSRLRSDDTAVYYCARGLRRGGYYFDYWGQGTLVTVSS
VL: DIVMTQSPLSLPVTLGQPASISCKASQDVNTAVAWYLQKPGKSPKLLIYSASNRYTGVPDRITGSGSGTDFTLKISRVEAEDVGVYYCQQHYSTPFTFGSGTKLEIKR
For the molecule B3, the koff in test [1] was determined as 7.99e-05 s⁻¹; in test [2], 9.54e-05 s⁻¹. Besides, the kon in test [1] was found to be 1.29e+06 M⁻¹ s⁻¹; in test [2], 1.34e+06 M⁻¹ s⁻¹.

B4: HM1.24_H0L0_IgG1_WT (antibody)
heavy: not shown
light: DIVMTQSHKFMSTSVGDRVSITCKASQDVNTAVAWYQQKPGQSPKLLIYSASNRYTGVPDRITGSGSGTDFTFTISSVQAEDLALYYCQQHYSTPFTFGSGTKLEIKRTVAAPSVFIFPPSDEQLKSGTASVVCLLNNFYPREAKVQWKVDNALQSGNSQESVTEQDSKDSTYSLSSTLTLSKADYEKHKVYACEVTHQGLSSPVTKSFNRGEC
notes: also called WT anti-HM1.24 antibody; parent HM1.24_H0L0_IgG1 WT antibody
On to B4, for which the figures for the koff in test [1] and in test [2] were 3.57e-05 s⁻¹ and 4.4e-05 s⁻¹, respectively. Further, the figures for the kon in test [1] and in test [2] were 699000 M⁻¹ s⁻¹ and 820000 M⁻¹ s⁻¹, respectively.

B5: HM1.24_H0L0 IgG1 S239D/I332E (antibody)
heavy: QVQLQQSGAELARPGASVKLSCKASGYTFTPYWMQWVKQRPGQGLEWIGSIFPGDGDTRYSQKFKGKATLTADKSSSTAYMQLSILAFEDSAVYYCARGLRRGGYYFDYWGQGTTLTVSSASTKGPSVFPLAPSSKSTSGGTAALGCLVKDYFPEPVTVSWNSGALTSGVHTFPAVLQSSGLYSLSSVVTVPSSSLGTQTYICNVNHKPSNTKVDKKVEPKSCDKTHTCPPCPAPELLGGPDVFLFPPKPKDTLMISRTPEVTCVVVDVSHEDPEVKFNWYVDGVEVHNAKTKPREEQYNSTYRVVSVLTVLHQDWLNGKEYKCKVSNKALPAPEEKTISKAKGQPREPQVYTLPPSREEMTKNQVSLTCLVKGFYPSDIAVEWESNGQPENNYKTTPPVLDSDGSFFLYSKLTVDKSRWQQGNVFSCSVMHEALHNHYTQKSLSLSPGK
light: DIVMTQSHKFMSTSVGDRVSITCKASQDVNTAVAWYQQKPGQSPKLLIYSASNRYTGVPDRITGSGSGTDFTFTISSVQAEDLALYYCQQHYSTPFTFGSGTKLEIKRTVAAPSVFIFPPSDEQLKSGTASVVCLLNNFYPREAKVQWKVDNALQSGNSQESVTEQDSKDSTYSLSSTLTLSKADYEKHKVYACEVTHQGLSSPVTKSFNRGEC
As for B5, in test [1], the koff was 4.03e-05 s⁻¹ and the kon turned out to be 772000 M⁻¹ s⁻¹. Moreover, in test [2], the koff came to 5.5e-05 s⁻¹ and the kon was determined as 863000 M⁻¹ s⁻¹.
